From US20150218238A1, “TREATING DISEASES BY MODULATING A SPECIFIC ISOFORM OF MKL1” (NOVARTIS FORSCHUNGSSTIFTUNG, ZWEIGNIEDERLASSUNG FRIEDRICH …, priority 2012, published 2015)

Tested on: EcR-293 cells
Assay: DNA microarray on EcR-293 cells overexpressing MKL1 isoforms
Type: cell-based, human
Details: vs empty pcDNA3 vector
Experimental: DNA microarray EcR-293 cells stably transfected with 1) the empty pcDNA3 vector, 2) 5′UTR-MKL_L, 3) 5′UTR-MKL_S were grown in triplicates. For “untreated” samples, total RNA was extracted from cells in D-MEM/10% FBS. “LPA treated” cells were starved for 16 h in D-MEM/0.3% FBS and subsequently treated with 50 μm LPA for 20 min. RNA was extracted 4 h after treatment. RNA was converted into labeled cRNA and hybridized to Affymetrix Human Gene 1.0 arrays (Affymetrix, Santa Clara, Calif., USA). The procedure for the microarray analysis was as previously described (4). Differences in gene expression were calculated for 2) vs. 1), 3) vs. 1), and 3) vs. 2). • (1) Miralles F et al., Cell, Volume 113, Issue 3, May 2003, 329-342 • (2) Maier S et al., Biochimica et Biophysica Acta (BBA)—Molecular Cell Research, Volume 1783, Issue 6, June 2008, 1150-1162 • (3) Martina et al., The FASEB Journal, Volume 24, Issue 3, March 2010, 778-787 • (4) Asparuhova et al., The FASEB Journal, Volume 25, Issue 10, October 2011, 3477-3488

B1: MKL_L: published long isoform of human MKL1 (SEQ ID NO:3), stably overexpressed in EcR-293 cells from construct 5′UTR-MKL_L (protein, listed as Homo sapiens)
chain: LPPSVIAVNGMDGGGAGENDDEPVLVSLSAAPSPQSEAVANELQELSLQPELTLGLHPGRNPNLPPLSERKNVLQLKLQQRRTREELVSQGIMPPLKSPAAFHEQRRSLERARTEDYLKRKIRSRPERSELVRMHILEETSAEPSLQAKQLKLKRARLADDLNEKIAQRPGPMELVEKNILPVESSLKEAIIVGQVNYPKVADSSSFDEDSSDALSPEQPASHESQGSVPSPLEARVSEPLLSATSASPTQVVSQLPMGRDSREMLFLAEQPPLPPPPLLPPSLTNGTTIPTAKSTPTLIKQSQPKSASEKSQRSKKAKELKPKVKKLKYHQYIPPDQKQDRGAPPMDSSYAKILQQQQLFLQLQILNQQQQQHHNYQAILPAPPKSAGEALGSSGTPPVRSLSTTNSSSSSGAPGPCGLARQNSTSLTGKPGALPANLDDMKVAELKQELKLRSLPVSGTKTELIERLRAYQDQISPVPGAPKAPAATSILHKAGEVVVAFPAARLSTGPALVAAGLAPAEVVVATVASSGVVKFGSTGSTPPVSPTPSERSLLSTGDENSTPGDTFGEMVTSPLTQLTLQASPLQILVKEEGPRAGSCCLSPGGRAELEGRDKDQMLQEKDKQIEALTRMLRQKQQLVERLKLQLEQEKRAQQPAPAPAPLGTPVKQENSFSSCQLSQQPLGPAHPFNPSLAAPATNHIDPCAVAPGPPSVVVKQEALQPEPEPVPAPQLLLGPQGPSLIKGVAPPTLITDSTGTHLVLTVTNKNADSPGLSSGSPQQPSSQPGSPAPAPSAQMDLEHPLQPLFGTPTSLLKKEPPGYEEAMSQQPKQQENGSSSQQMDDLFDILIQSGEISADFKEPPSLPGKEKPSPKTVCGSPLAAQPSPSAELPQAAPPPPGSPSLPGRLEDFLESSTGLPLLTSGHDGPEPLSLIDDLHSQMLSSTAILDHPPSPMDTSELHFVPEPSSTMGLDLADGHLDSMDWLELSSGGPVLSLAPLSTTAPSLFSTDFLDGHDLQLHWDSCL
- ACTA2 fold change vs. control (4 h after LPA treatment): +1.86 (7.22E−05) fold
- ADAM21 fold change vs. control (4 h after LPA treatment): −1.36 (8.44E−04) fold
- AMBN fold change vs. control (4 h after LPA treatment): +3.09 (3.65E−06) fold
- CNN2 fold change vs. control (4 h after LPA treatment): <1.20 fold
- DSEL fold change vs. control (4 h after LPA treatment): +1.56 (1.45E−04) fold
- ESRRG fold change vs. control (4 h after LPA treatment): +1.71 (2.20E−07) fold
- MKL1 (total) fold change vs. control (4 h after LPA treatment): +4.61 (4.29E−09) fold
- MMP16 fold change vs. control (4 h after LPA treatment): +2.30 (4.46E−05) fold
- NAP1L3 fold change vs. control (4 h after LPA treatment): +1.86 (1.01E−04) fold
- OSTN fold change vs. control (4 h after LPA treatment): <1.20 fold
- PDGFD fold change vs. control (4 h after LPA treatment): +1.50 (2.62E−05) fold
- ROCK1P1 fold change vs. control (4 h after LPA treatment): <1.20 fold
- RORB fold change vs. control (4 h after LPA treatment): +1.53 (5.71E−05) fold
- SLC8A1 fold change vs. control (4 h after LPA treatment): +2.18 (6.58E−07) fold
- SPOCK3 fold change vs. control (4 h after LPA treatment): +2.31 (1.61E−06) fold
- ACTA2 fold change vs. control (untreated cells): +2.62 (5.99E−08) fold
- ADAM21 fold change vs. control (untreated cells): −1.27 (1.586−02) fold
- AMBN fold change vs. control (untreated cells): −1.89 (2.18E−04) fold
- CNN2 fold change vs. control (untreated cells): +1.65 (2.35E−06) fold
- DSEL fold change vs. control (untreated cells): +1.61 (4.36E−04) fold
- ESRRG fold change vs. control (untreated cells): +2.14 (6.11E−08) fold
- MKL1 (total) fold change vs. control (untreated cells): +5.68 (1.23E−12) fold
- MMP16 fold change vs. control (untreated cells): +1.47 (6.97E−04) fold
- NAP1L3 fold change vs. control (untreated cells): +1.54 (7.53E−04) fold
- OSTN fold change vs. control (untreated cells): −2.38 (2.56E−05) fold
- PDGFD fold change vs. control (untreated cells): +1.93 (7.54E−05) fold
- ROCK1P1 fold change vs. control (untreated cells): <1.20 fold
- RORB fold change vs. control (untreated cells): +2.27 (5.80E−08) fold
- SLC8A1 fold change vs. control (untreated cells): +1.89 (1.37E−07) fold
- SPOCK3 fold change vs. control (untreated cells): +1.63 (7.80E−05) fold
